Earlier results in article PMC5810417.
Where two headings read alike, the source gives them in different places.

Key:
[1] = target: Prdx6 (Homo sapiens) (UniProt P30041)
[2] = target: Prdx6 (Homo sapiens) (UniProt P30041); assay: PLA2 activity inhibition
[3] = target: Prdx6 (Homo sapiens) (UniProt P30041); remark: listed apart in the source
[4] = target: Prdx6 (Homo sapiens) (UniProt P30041); remark: listed apart in the source

## πGST1-1B and D (from UniProt P09211)
[1]
  Kd: 100 nM

## SP-A (from UniProt Q8IWL2)
[2]
  Ki: 130 nM

## p67phox (from UniProt P19878)
[2]
  Ki: 65 nM

## πGST1-1A and C (from UniProt P09211)
[3]
  Kd: 50 nM

## Prdx6 (from UniProt P30041)
[4]
  Kd: < 20 nM
